Measured values taken from the supplement of paper PMC9112550, “Optimization of the antimicrobial peptide Bac7 by deep mutational scanning” (BMC Biology, 2022).

What follows are sequences tested on Escherichia coli TOP10 (assay: shrunken log2 fold change of peptide-encoding DNA abundance (4.5 h post-induction vs induction); higher = less antimicrobial activity (less host growth inhibition)). Conditions: time post-induction: 4.5 h; library: site-saturation at positions 5, 18, 19, 20.
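Further: peptides expressed intracellularly from a pBAD plasmid library in pooled LB shake-flask culture, induced with 0.3% L-arabinose, DNA abundance read by NGS, three biological replicates, DESeq2 with apeglm shrinkage.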

Row | Sequence | shrunken log2 fold change
1 | RRIRIRPPRLPRPRPRPRHVPRP | -0.163
2 | RRIRIRPPRLPRPRPRPRKQPRP | -0.00244
3 | RRIRIRPPRLPRPRPRPRKTPRP | 0.13
4 | RRIRIRPPRLPRPRPRPRLEPRP | 0.117
5 | RRIRIRPPRLPRPRPRPRMSPRP | -0.323
6 | RRIRIRPPRLPRPRPRPRNNPRP | -0.355
7 | RRIRIRPPRLPRPRPRPRRAPRP | 0.176
8 | RRIRIRPPRLPRPRPRPRSFPRP | -0.0641
9 | RRIRIRPPRLPRPRPRPRSQPRP | 0.085
10 | RRIRIRPPRLPRPRPRPRTSPRP | 0.0339
11 | RRIRIRPPRLPRPRPRPRVVPRP | 0.00259
12 | RRIRIRPPRLPRPRPRPRYGPRP | -0.411
13 | RRIRIRPPRLPRPRPRPRYMPRP | -0.114
14 | RRIRIRPPRLPRPRPRPSAKPRP | -0.0328
15 | RRIRIRPPRLPRPRPRPSCRPRP | -0.644
16 | RRIRIRPPRLPRPRPRPSDQPRP | -0.528
17 | RRIRIRPPRLPRPRPRPSERPRP | -0.073
18 | RRIRIRPPRLPRPRPRPSEVPRP | 0.0174
19 | RRIRIRPPRLPRPRPRPSFHPRP | -1.13
20 | RRIRIRPPRLPRPRPRPSHCPRP | -0.505
21 | RRIRIRPPRLPRPRPRPSIAPRP | -0.628
22 | RRIRIRPPRLPRPRPRPSLGPRP | -0.245
23 | RRIRIRPPRLPRPRPRPSMIPRP | -0.458
24 | RRIRIRPPRLPRPRPRPSMKPRP | -0.56
25 | RRIRIRPPRLPRPRPRPSPMPRP | -0.2

Row | Sequence | shrunken log2 fold change
26 | RRIRIRPPRLPRPRPRPSQLPRP | -0.385
27 | RRIRIRPPRLPRPRPRPSRCPRP | -0.174
28 | RRIRIRPPRLPRPRPRPSRWPRP | 0.324
29 | RRIRIRPPRLPRPRPRPSRYPRP | -0.759
30 | RRIRIRPPRLPRPRPRPSTEPRP | -0.388
31 | RRIRIRPPRLPRPRPRPSTYPRP | -1.63
32 | RRIRIRPPRLPRPRPRPSVHPRP | -0.278
33 | RRIRIRPPRLPRPRPRPSWQPRP | 0.144
34 | RRIRIRPPRLPRPRPRPSWWPRP | -0.059
35 | RRIRIRPPRLPRPRPRPSYWPRP | -0.781
36 | RRIRIRPPRLPRPRPRPTAEPRP | -0.0333
37 | RRIRIRPPRLPRPRPRPTAGPRP | -0.167
38 | RRIRIRPPRLPRPRPRPTAWPRP | 0.152
39 | RRIRIRPPRLPRPRPRPTCLPRP | -0.0168
40 | RRIRIRPPRLPRPRPRPTCSPRP | -0.371
41 | RRIRIRPPRLPRPRPRPTGEPRP | 0.00229
42 | RRIRIRPPRLPRPRPRPTHRPRP | -0.322
43 | RRIRIRPPRLPRPRPRPTHTPRP | -0.448
44 | RRIRIRPPRLPRPRPRPTHWPRP | 0.133
45 | RRIRIRPPRLPRPRPRPTLDPRP | 1.36
46 | RRIRIRPPRLPRPRPRPTLFPRP | -0.131
47 | RRIRIRPPRLPRPRPRPTLWPRP | 0.22
48 | RRIRIRPPRLPRPRPRPTMLPRP | -0.487
49 | RRIRIRPPRLPRPRPRPTMWPRP | -0.0599
50 | RRIRIRPPRLPRPRPRPTNLPRP | -0.606

Row | Sequence | shrunken log2 fold change
51 | RRIRIRPPRLPRPRPRPTPFPRP | -0.133
52 | RRIRIRPPRLPRPRPRPTQLPRP | 0.31
53 | RRIRIRPPRLPRPRPRPTQVPRP | 0.00035
54 | RRIRIRPPRLPRPRPRPTRAPRP | 0.561
55 | RRIRIRPPRLPRPRPRPTTFPRP | -0.688
56 | RRIRIRPPRLPRPRPRPTVQPRP | -0.146
57 | RRIRIRPPRLPRPRPRPTWNPRP | 0.409
58 | RRIRIRPPRLPRPRPRPTYDPRP | -1.08
59 | RRIRIRPPRLPRPRPRPTYEPRP | -0.458
60 | RRIRIRPPRLPRPRPRPTYSPRP | -0.408
61 | RRIRIRPPRLPRPRPRPTYWPRP | -0.421
62 | RRIRIRPPRLPRPRPRPVAFPRP | -0.306
63 | RRIRIRPPRLPRPRPRPVAHPRP | 0.0168
64 | RRIRIRPPRLPRPRPRPVCLPRP | -0.369
65 | RRIRIRPPRLPRPRPRPVCMPRP | -0.564
66 | RRIRIRPPRLPRPRPRPVEKPRP | -0.126
67 | RRIRIRPPRLPRPRPRPVFAPRP | 0.0576
68 | RRIRIRPPRLPRPRPRPVFMPRP | -0.275
69 | RRIRIRPPRLPRPRPRPVFPPRP | -0.221
70 | RRIRIRPPRLPRPRPRPVGDPRP | -0.0246
71 | RRIRIRPPRLPRPRPRPVGKPRP | -0.118
72 | RRIRIRPPRLPRPRPRPVGVPRP | -0.157
73 | RRIRIRPPRLPRPRPRPVHVPRP | -0.168
74 | RRIRIRPPRLPRPRPRPVIKPRP | -0.918
75 | RRIRIRPPRLPRPRPRPVILPRP | -0.423
